T1: huCTLA-4 ECD (his-tag) (human, UniProt P16410 37-162)
T1 construct: also called HX1 hCTLA4 his; HX1 huCTLA4 his; not shown: his-tag
T1 sequence: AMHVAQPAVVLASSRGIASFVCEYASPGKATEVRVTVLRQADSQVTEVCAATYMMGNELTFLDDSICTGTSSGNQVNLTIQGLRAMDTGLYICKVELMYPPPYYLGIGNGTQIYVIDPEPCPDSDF

B1: huJS007-48 (antibody, human IgG1, kappa, V domains shown)
VH: QVQLQESGPGLVKPSQTLSLTCTVSAYSITSGYYWNWIRQHPGKGLEWIGYIGYDGSNNYNPSLKSRVTISRDTSKNQFSLKLSSVTAADTAVYYCARDYYSGYFDSWGQGTTLTVSS
VL: DIQMTQSPSSLSASVGDRVTITCRASQNVGTYVAWYQQKPGKAPKPLIYSTSYRYSGVPSRFSGSGSGTDFTLTISSLQPEDFATYFCHQYDTYPLTFGAGTKLELKR
B2: HuJS007-55 (antibody, V domains shown)
VH: QVQLQESGPGLVKPSETLSLTCTVSGYSITSGYYWNWIRQPPGKGLEWIGYIGYDGSNNYNPSLKSRVTISRDTSKNQFSLKLSSVTAADTAVYYCARDYYSGYFDSWGQGTTLTVSS
VL: DIVMTQSPDSLAVSLGERATINCKASQNVGTYVAWYQQKPGQPPKPLIYSTSYRYSGVPDRFSGSGSGTDFTLTISSLQAEDVAVYFCHQYDTYPLTFGAGTKLELK
notes: 4B7 VH2-3 + 4B7VL1; constant regions not specified
B3: HuJS007-46 (antibody, V domains shown)
VH: QVQLQESGPGLVKPSQTLSLTCTVSAYSITSGYYWNWIRQHPGKGLEWIGYIGYDGSNNYNPSLKSRVTISRDTSKNQFSLKLSSVTAADTAVYYCARDYYSGYFDSWGQGTTLTVSS
VL: DIVMTQSPDSLAVSLGERATINCKASQNVGTYVAWYQQKPGQPPKPLIYSTSYRYSGVPDRFSGSGSGTDFTLTISSLQAEDVAVYFCHQYDTYPLTFGAGTKLELK
notes: 4B7 VH2-2 + 4B7VL1; constant regions not specified
B4: HuJS007-71 (antibody, V domains shown)
VH: QVQLQESGPGLVKPSQTLSLTCAVSAYSITSGYYWNWIRQHPGKGLEWIGYIGYDGSNNYNPSLKSRVTISRDTSKNQFSLKLSSVTAADTAVYYCARDYYSGYFDSWGQGTTLTVSS
VL: DIVMTQSPDSLAVSLGERATINCKASQNVGTYVAWYQQKPGQPPKPLIYSTSYRYSGVPDRFSGSGSGTDFTLTISSLQAEDVAVYFCHQYDTYPLTFGQGTKLEIK
notes: 4B7 VH2-4 + 4B7VL8; constant regions not specified
B5: HuJS007-62 (antibody, V domains shown)
VH: QVQLQESGPGLVKPSETLSLTCTVSGYSITSGYYWNWIRQPPGKGLEWIGYIGYDGSNNYNPSLKSRVTISRDTSKNQFSLKLSSVTAADTAVYYCARDYYSGYFDSWGQGTTLTVSS
VL: DIVMTQSPDSLAVSLGERATINCKASQNVGTYVAWYQQKPGQPPKPLIYSTSYRYSGVPDRFSGSGSGTDFTLTISSLQAEDVAVYFCHQYDTYPLTFGQGTKLEIK
notes: 4B7 VH2-3 + 4B7VL8; constant regions not specified
B6: HuJS007-73 (antibody, V domains shown)
VH: QVQLQESGPGLVKPSQTLSLTCAVSGYSISSGYYWNWIRQPPGKGLEWIGYIGYDGSNYYNPSLKSRVTMSVDTSKNQFSLKLSSVTAVDTAVYYCARNYYSGYFDSWGQGTTVTVSS
VL: DIVMTQSPDSLAVSLGERATINCKASQNVGTYVAWYQQKPGQPPKPLIYSTSYRYSGVPDRFSGSGSGTDFTLTISSLQAEDVAVYFCHQYDTYPLTFGAGTKLELK
notes: 1A5 VH5 + 4B7VL1; constant regions not specified
B7: HuJS007-89 (antibody, V domains shown)
VH: QVQLQESGPGLVKPSQTLSLTCAVSGYSISSGYYWNWIRQFPGKGLEWMGYIGYDGSNYYNPSLKNRVTMSVDTSKNQFSLKLSSVTAVDTAVYYCARNYYSGYFDSWGQGTTVTVSS
VL: DIVMTQSPDSLAVSLGERATINCKASQNVGTYVAWYQQKPGQPPKPLIYSTSYRYSGVPDRFSGSGSGTDFTLTISSLQAEDVAVYFCHQYDTYPLTFGQGTKLEIK
notes: 1A5 VH6 + 4B7VL8; constant regions not specified
B8: HuJS007-51 (antibody, V domains shown)
VH: QVQLQESGPGLVKPSQTLSLTCTVSAYSITSGYYWNWIRQHPGKGLEWIGYIGYDGSNNYNPSLKSRVTISRDTSKNQFSLKLSSVTAADTAVYYCARDYYSGYFDSWGQGTTLTVSS
VL: DIVMTQSPDSLAVSLGERATINCKASQNVGTYVAWYQQKPGQPPKLLIYSTSYRYSGVPDRFSGSGSGTDFTLTISSLQAEDVAVYYCHQYDTYPLTFGQGTKLEIK
notes: 4B7 VH2-2 + 4B7VL6; constant regions not specified
B9: HuJS007-53 (antibody, V domains shown)
VH: QVQLQESGPGLVKPSQTLSLTCTVSAYSITSGYYWNWIRQHPGKGLEWIGYIGYDGSNNYNPSLKSRVTISRDTSKNQFSLKLSSVTAADTAVYYCARDYYSGYFDSWGQGTTLTVSS
VL: DIVMTQSPDSLAVSLGERATINCKASQNVGTYVAWYQQKPGQPPKPLIYSTSYRYSGVPDRFSGSGSGTDFTLTISSLQAEDVAVYFCHQYDTYPLTFGQGTKLEIK
notes: 4B7 VH2-2 + 4B7VL8; constant regions not specified
B10: HuJS007-107 (antibody, V domains shown)
VH: QVQLQESGPGLVKPSQTLSLTCAVSGYSITSGYYWNWIRQPPGKGLEWIGYIGYDGSNNYNPSLKNRVTMSVDTSKNQFSLKLSSVTAVDTAVYYCARDYYSGYFDSWGQGTTVTVSS
VL: DIVMTQSPDSLAVSLGERATINCKASQNVGTYVAWYQQKPGQPPKPLIYSTSYRYSGVPDRFSGSGSGTDFTLTISSLQAEDVAVYFCHQYDTYPLTFGQGTKLEIK
notes: 4B7 VH2-5 + 4B7VL8; constant regions not specified
B11: HuJS007-60 (antibody, V domains shown)
VH: QVQLQESGPGLVKPSETLSLTCTVSGYSITSGYYWNWIRQPPGKGLEWIGYIGYDGSNNYNPSLKSRVTISRDTSKNQFSLKLSSVTAADTAVYYCARDYYSGYFDSWGQGTTLTVSS
VL: DIVMTQSPDSLAVSLGERATINCKASQNVGTYVAWYQQKPGQPPKLLIYSTSYRYSGVPDRFSGSGSGTDFTLTISSLQAEDVAVYYCHQYDTYPLTFGQGTKLEIK
notes: 4B7 VH2-3 + 4B7VL6; constant regions not specified
B12: HuJS007-69 (antibody, V domains shown)
VH: QVQLQESGPGLVKPSQTLSLTCAVSAYSITSGYYWNWIRQHPGKGLEWIGYIGYDGSNNYNPSLKSRVTISRDTSKNQFSLKLSSVTAADTAVYYCARDYYSGYFDSWGQGTTLTVSS
VL: DIVMTQSPDSLAVSLGERATINCKASQNVGTYVAWYQQKPGQPPKLLIYSTSYRYSGVPDRFSGSGSGTDFTLTISSLQAEDVAVYYCHQYDTYPLTFGQGTKLEIK
notes: 4B7 VH2-4 + 4B7VL6; constant regions not specified
B13: HuJS007-78 (antibody, V domains shown)
VH: QVQLQESGPGLVKPSQTLSLTCAVSGYSISSGYYWNWIRQPPGKGLEWIGYIGYDGSNYYNPSLKSRVTMSVDTSKNQFSLKLSSVTAVDTAVYYCARNYYSGYFDSWGQGTTVTVSS
VL: DIVMTQSPDSLAVSLGERATINCKASQNVGTYVAWYQQKPGQPPKLLIYSTSYRYSGVPDRFSGSGSGTDFTLTISSLQAEDVAVYYCHQYDTYPLTFGQGTKLEIK
notes: 1A5 VH5 + 4B7VL6; constant regions not specified
B14: HuJS007-64 (antibody, V domains shown)
VH: QVQLQESGPGLVKPSQTLSLTCAVSAYSITSGYYWNWIRQHPGKGLEWIGYIGYDGSNNYNPSLKSRVTISRDTSKNQFSLKLSSVTAADTAVYYCARDYYSGYFDSWGQGTTLTVSS
VL: DIVMTQSPDSLAVSLGERATINCKASQNVGTYVAWYQQKPGQPPKPLIYSTSYRYSGVPDRFSGSGSGTDFTLTISSLQAEDVAVYFCHQYDTYPLTFGAGTKLELK
notes: 4B7 VH2-4 + 4B7VL1; constant regions not specified
B15: HuJS007-105 (antibody, V domains shown)
VH: QVQLQESGPGLVKPSQTLSLTCAVSGYSITSGYYWNWIRQPPGKGLEWIGYIGYDGSNNYNPSLKNRVTMSVDTSKNQFSLKLSSVTAVDTAVYYCARDYYSGYFDSWGQGTTVTVSS
VL: DIVMTQSPDSLAVSLGERATINCKASQNVGTYVAWYQQKPGQPPKLLIYSTSYRYSGVPDRFSGSGSGTDFTLTISSLQAEDVAVYYCHQYDTYPLTFGQGTKLEIK
notes: 4B7 VH2-5 + 4B7VL6; constant regions not specified
B16: HuJS007-80 (antibody, V domains shown)
VH: QVQLQESGPGLVKPSQTLSLTCAVSGYSISSGYYWNWIRQPPGKGLEWIGYIGYDGSNYYNPSLKSRVTMSVDTSKNQFSLKLSSVTAVDTAVYYCARNYYSGYFDSWGQGTTVTVSS
VL: DIVMTQSPDSLAVSLGERATINCKASQNVGTYVAWYQQKPGQPPKPLIYSTSYRYSGVPDRFSGSGSGTDFTLTISSLQAEDVAVYFCHQYDTYPLTFGQGTKLEIK
notes: 1A5 VH5 + 4B7VL8; constant regions not specified
B17: HuJS007-100 (antibody, V domains shown)
VH: QVQLQESGPGLVKPSQTLSLTCAVSGYSITSGYYWNWIRQPPGKGLEWIGYIGYDGSNNYNPSLKNRVTMSVDTSKNQFSLKLSSVTAVDTAVYYCARDYYSGYFDSWGQGTTVTVSS
VL: DIVMTQSPDSLAVSLGERATINCKASQNVGTYVAWYQQKPGQPPKPLIYSTSYRYSGVPDRFSGSGSGTDFTLTISSLQAEDVAVYFCHQYDTYPLTFGAGTKLELK
notes: 4B7 VH2-5 + 4B7VL1; constant regions not specified
B18: HuJS007-49 (antibody, V domains shown)
VH: QVQLQESGPGLVKPSQTLSLTCTVSAYSITSGYYWNWIRQHPGKGLEWIGYIGYDGSNNYNPSLKSRVTISRDTSKNQFSLKLSSVTAADTAVYYCARDYYSGYFDSWGQGTTLTVSS
VL: DIQMTQSPSFLSASVGDRVTITCRASQNVGTYVAWYQQKPGKAPKPLIYSTSYRYSGVPSRFSGSGSGTEFTLTISSLQPEDFATYFCHQYDTYPLTFGAGTKLELK
notes: 4B7 VH2-2 + 4B7VL4; constant regions not specified
B19: HuJS007-50 (antibody, V domains shown)
VH: QVQLQESGPGLVKPSQTLSLTCTVSAYSITSGYYWNWIRQHPGKGLEWIGYIGYDGSNNYNPSLKSRVTISRDTSKNQFSLKLSSVTAADTAVYYCARDYYSGYFDSWGQGTTLTVSS
VL: DIQMTQSPSSLSASVGDRVTITCQASQNVGTYVAWYQQKPGKAPKPLIYSTSYRYSGVPSRFSGSGSGTDFTFTISSLQPEDIATYFCHQYDTYPLTFGAGTKLELK
notes: 4B7 VH2-2 + 4B7VL5; constant regions not specified

This note sets out measurements from patent US20230295301A1 (SHANGHAI JUNSHI BIOSCIENCES, published 2023).

In this test the target is T1, huCTLA-4 ECD (his-tag). Put plainly: ELISA, coated huCTLA-4 his. Here is the method:
HX1 hCTLA4 his was diluted with PBS (Hyclone) to 1.0 μg/mL, and the dilution was added to a microplate at 100 μL/well. The plate was let stand in an incubator at 37° C. and coated for 90 min and then washed, and 2% BSA was added to the plate at 200 μL/well. The plate was incubated in an incubator at 37° C. for 90 min and then washed. The humanized anti-CTLA-4 antibodies in Table 4 and the control antibody (ipilimumab) were diluted with a diluent (2% BSA) to 1000 ng/mL. The dilution performed each time was not higher than 10-fold. Then, the humanized antibodies and the control antibody were serially diluted 2.5-fold on a sample dilution plate. All the humanized antibody solutions and the control antibody solution were added to a microplate at 100 μL/well. The plate was incubated in an incubator at 37° C. for 60 min and then washed. An HRP-conjugated goat anti-human antibody IgG (Fc specific) was diluted 5000-fold with 2% BSA, and the dilution was added to the microplate at 100 μL/well. The plate was incubated in an incubator at 37° C. for 60 min and then washed. The color development solution TMB was added at 100 μL/well, during which bubbles were avoided. Color development was allowed at 37° C. for 15 min in the dark and then terminated by adding 2 M hydrochloric acid solution at 100 μL/well, during which bubbles were avoided. Reading (wavelength: 450/620 nm) was done within 10 min using a microplate reader.
Turning to B1, the binding result is on record as “binds”.

As to B2, the binding result is given as “binds”.

Take B3: the binding result is given as “binds”. Take B4: the binding result is recorded as “binds”.

B5: the binding result is on record as “binds”. With B6, the binding result is on record as “binds”.

Turning to B7, the binding result was “binds”. Regarding B8, the binding result was “binds”. Regarding B9, the binding result is reported as “binds”. With B10, the binding result is on record as “binds”.

Consider B11, for which the binding result is reported as “binds”.

With B12, the binding result is recorded as “binds”. Consider B13, for which the binding result was “binds”. In the case of B14, the binding result is listed as “binds”.

For B15, the binding result is recorded as “binds”.

As for B16, the binding result was “binds”.

As for B17, the binding result is “binds”. With B18, the binding result is “binds”. As to B19, the binding result is on record as “binds”.
